Data published in paper PMC3676807, “A Chimeric UDP-Glucose Pyrophosphorylase Produced by Protein Engineering Exhibits Sensitivity to Allosteric Regulators” (International Journal of Molecular Sciences, 2013).
Blank lines part the entries; values can stand above or below the molecule they belong to.

How the values were obtained:
[1] = biological target: T1, SmuGalU-Δ294EcoGlgC (chimeric UDP-Glc PPase); experiment: Pi release after pyrophosphatase, Malachite Green; Hill fit; assay type: biochemical, Streptococcus mutans; Escherichia coli; settings: allosteric activator; 1 mM Glc-1P, 1 mM UTP, 3 mM Mg2+, pH 8.0, 37 °C; read-out: A0.5
T1 construct: gene galU; entire S. mutans GalU fused to the 137 C-terminal residues of E. coli GlgC (from P295); N-terminal His-tag kept; E. coli BL21 (DE3) pLysS; homotetramer ~200 kDa

[2] = biological target: chimeric SmuGalU-Δ294EcoGlgC (Streptococcus mutans ATCC 25175 | Escherichia coli) (UniProt P0A6V1); experiment: SEC; gel filtration on Superdex 200 (Tricorn 5/200 column), calibrated with protein standards 44-669 kDa; mass of the native protein; buffer not stated
[3] = tested on: T1, SmuGalU-Δ294EcoGlgC (chimeric UDP-Glc PPase); experiment: Pi release after pyrophosphatase, Malachite Green; Hill fit; assay type: biochemical, Streptococcus mutans; Escherichia coli; settings: UDP-Glc synthesis, no effector, 3 mM Mg2+, pH 8.0, 37 °C
From the text: Pi release after pyrophosphatase, Malachite Green; Hill fit on SmuGalU-Δ294EcoGlgC (chimeric UDP-Glc PPase)

[4] = biological target: UDP-glucose pyrophosphorylase from Streptococcus mutans (SmuGalU) (Streptococcus mutans ATCC 25175); experiment: SEC; gel filtration on Superdex 200 (Tricorn 5/200 column), calibrated with protein standards 44-669 kDa; mass of the native protein; buffer not stated
[5] = substrate: Cc1cn([C@H]2C[C@H](O)[C@@H](COP(=O)(O)OP(=O)(O)OP(=O)(O)O)O2)c(=O)[nH]c1=O; experiment: Pi release after pyrophosphatase, Malachite Green; Hill fit; assay type: biochemical, Streptococcus mutans; settings: dTDP-Glc synthesis, 1 mM Glc-1P, 3 mM Mg2+, pH 8.0, 37 °C
[6] = substrate: O=c1ccn([C@@H]2O[C@H](COP(=O)(O)OP(=O)(O)OP(=O)(O)O)[C@@H](O)[C@H]2O)c(=O)[nH]1; experiment: as above; assay type: biochemical, Streptococcus mutans; settings: UDP-Glc synthesis, saturating Glc-1P, 3 mM Mg2+, pH 8.0, 37 °C
[7] = substrate: O=P(O)(O)O[C@H]1O[C@H](CO)[C@@H](O)[C@H](O)[C@H]1O; experiment: as above; assay type: biochemical, Streptococcus mutans; settings: UDP-Glc synthesis, saturating UTP, 3 mM Mg2+, pH 8.0, 37 °C

Molecule: CC(=O)C(=O)O [Pyr]
- EC50 [1]: 30 mM

Molecule: O=P(O)(O)OC[C@H]1OC(O)(COP(=O)(O)O)[C@@H](O)[C@@H]1O (some centres unmarked) [Fru-1,6-bisP]
- EC50 [1]: 2 mM

Molecule: chimeric SmuGalU-Δ294EcoGlgC (from UniProt P0A6V1 295-431) (enzyme)
- stoichiometry N [2]: 4

Molecule: O=c1ccn([C@@H]2O[C@H](COP(=O)(O)OP(=O)(O)OP(=O)(O)O)[C@@H](O)[C@H]2O)c(=O)[nH]1 [UTP]
- Km ([3]; saturating Glc-1P): 240 ± 20 µM

Molecule: O=P(O)(O)O[C@H]1O[C@H](CO)[C@@H](O)[C@H](O)[C@H]1O [Glc-1P]
- Km ([3]; saturating UTP): 60 ± 5 µM

Molecule: O=C(O)[C@H](O)COP(=O)(O)O [3-PGA]
- EC50 [1]: 5.4 mM

- stoichiometry N [4]: 4
Molecule: UDP-glucose pyrophosphorylase from Streptococcus mutans (SmuGalU) (enzyme)

B1: SmuGalU (UDP-Glc PPase from S. mutans) (Streptococcus mutans UA159) (protein)
chain: MPSKKVRKAVIPAAGLGTRFLPATKALAKEMLPIVDKPTIQFIVEEALKSGIEDILVVTGKSKRSIEDHFDSNFELEYNLEQKGKTDLLKLVNDTTAINLHFIRQSHPRGLGDAVLQAKAFVGNEPFVVMLGDDLMDITDDKAIPLTRQLMNDYEETHASTIAVMEVPHEDVSAYGVIAPQGEGVSGLYSVDTFVEKPAPKEAPSNLAIIGRYLLTPEIFTILETQEPGAGNEVQLTDAIDTLNKTQRVFAREFKGKRYDVGDKFGFMKTSIDYALKHPQVKEDLKAYIIELGKKLDQKSTQKNSD
notes: full-length, N-terminal His-tag kept (pRSET-B), expressed in E. coli BL21 (DE3), Ni-NTA purified; homotetramer ~150 kDa; gene 921 bp
- K0.5 [5]: 0.54 mM
- K0.5 [6]: 0.68 ± 0.06 mM
- Vmax [6]: 62.1 µmol/min/mg
- Vmax/Km [6]: 91300 µL/min/mg
- K0.5 [7]: 0.090 ± 0.005 mM
- Vmax [7]: 62.1 µmol/min/mg
- Vmax/Km [7]: 690000 µL/min/mg
